Molecular target: T1, recombinant LY6K protein with histidine and Strep tags (human, UniProt Q17RY6 18-138)
T1 chain: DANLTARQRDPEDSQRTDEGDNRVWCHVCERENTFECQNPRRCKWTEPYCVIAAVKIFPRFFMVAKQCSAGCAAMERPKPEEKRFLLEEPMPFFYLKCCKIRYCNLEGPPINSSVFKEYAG
Test: QCM

| Binder | Kd |
| --- | --- |
| murine anti-LY6K antibody 28C1 (antibody, V domains shown) VH: QIQLVQSGPELKKPGETVKISCKTSGYTFTNFAMNWVKQTPGKGLRYMGWINTNTGEPTYVEEFKGRFAFSLETSASTAYLQISNLKNEDTATYFCTREWRRSYYFDYWGQGTSLTVSS VL: DIQMTQTPLSLPVSLGDQASISCRSSQTILHSNGNTYLEWYLQKPGQSLKLLIYKVSNRLSGVPDRFSGSGSGTDFTLKISRVEAEDLGVYYCFQGSHDPFTFGSGTKLE | 0.612 nM |
| murine anti-LY6K antibody G57 (antibody, V domains shown) VH: EVQLVESGGDLVKPGGSLKLSCAASGFTFNSYGMSWVRQTPDKRLEWVATISSGGTYTYYSDSVKGRFTISRDNAKNILYLHMSSLKSEDTAMYYCARHDWDFFDYWGQGTTLTVSS VL: DVVMTQTPLSLPVSLGDQASISCRSSQSLVHTDGDTYLNWYLQKPGQSPKLLIYKVSNRFSGVPDRFSGSGSGTDFTLKIRRVEAEDLGVYFCSQNTHVYTFGGGTKLE | 1.34 nM |
| murine anti-LY6K antibody 22C-G8 (antibody, V domains shown) VH: QVQLQQPGAELAKPGASVKLSCKTSGYTFTSYWMHWVKQRPGQGFEWIGEINPSNGGANYNEKFKRKATLTVDKSSSTAYMQLRSLTSEDSAVYYCTMGGNFFFAYWGQGTSVTVSS VL: not shown | 0.243 nM |

Source: patent US20250304712A1 (published 2025)
